Data: US20250262244A1 (published 2025)

B1: TCR12 (TCR, V domains shown)
Valpha: AQKVTQAQTEISVVEKEDVTLDCVYETRDTTYYLFWYKQPPSGELVFLIRRNSFDEQNEISGRYSWNFQKSTSSFNFTITASQVVDSAVYFCALSEMQGGSEKLVFGKGTKLTVNP
Vbeta: DSGVTQTPKHLITATGQRVTLRCSPRSGDLSVYWYQQSLDQGLQFLIHYYNGEERAKGNILERFSAQQFPDLHSELNLSSLELGDSALYFCASSTSSGSPDTQYFGPGTRLTVL
B2: TCR14 (TCR, V domains shown)
Valpha: GQQLNQSPQSMFIQEGEDVSMNCTSSSIFNTWLWYKQDPGEGPVLLIALYKAGELTSNGRLTAQFGITRKDSFLNISASIPSDVGIYFCAGQGASGTYKYIFGTGTRLKVLA
Vbeta: DAGVIQSPRHEVTEMGQEVTLRCKPISGHNSLFWYRQTMMRGLELLIYFNNNVPIDDSGMPEDRFSAKMPNASFSTLKIQPSEPRDSAVYFCASSPGTSDEFFGPGTRLTVL
B3: TCR15 (TCR, V domains shown)
Valpha: QKEVEQDPGPLSVPEGAIVSLNCTYSNSAFQYFMWYRQYSRKGPELLMYTYSSGNKEDGRFTAQVDKSSKYISLFIRDSQPSDSATYLCAMGGGSNYKLTFGKGTLLTVNP
Vbeta: DSGVTQTPKHLITATGQRVTLRCSPRSGDLSVYWYQQSLDQGLQFLIQYYNGEERAKGNILERFSAQQFPDLHSELNLSSLELGDSALYFCASSPPGQTNYGYTFGSGTRLTVV

Key:
[1] = target: T1, EWSR1/WT1 fusion protein (junction of EWS and WT1) peptide on HLA-A*03 (human); test: multimer staining
T1 peptide: SSYGQQSEK

[2] = target: T1, EWSR1/WT1 fusion protein (junction of …); test: cytokine release
[3] = target: T2, EWSR1/WT1 fusion protein (junction of EWS and WT1) peptide on HLA-A*11 (human); test: cytokine release
T2 peptide: SSYGQQSEK

| Binder | binding result [1] | binding result [2] | binding result [3] |
| --- | --- | --- | --- |
| B1 | recognises |  |  |
| B2 | recognises |  |  |
| B3 |  | recognises | recognises |
